Results from article PMC10877131 (JHEP Reports, 2024).

Target: the molecule itself
Experiment: immunoblot

B1: Thrombospondin-2 (THBS2), overexpressed in LX-2 cells, in conditioned media (natural protein)
chain: not shown
With B1 the “stoichiometry N” value was 2.
